For 5 proteins, Km results are on record in publication PMC6677139.

What all share (assay): purified protein
Substrate in data set [1]: Nc1nc2nc[nH]c2c(=O)[nH]1
Type of data set: biochemical, Saccharomyces cerevisiae. Conditions: 20 mM HEPES pH 7.5, 100 mM NaCl, 37 °C, zinc enzyme.

Substrate in data set [2]: Cn1c(N)nc2nc[nH]c2c1=O
The class given is biochemical, Escherichia coli. Conditions: 20 mM HEPES pH 7.5, 100 mM NaCl, 37 °C, zinc enzyme.

Substrate in data set [3]: Nc1nc(N)nc(O)n1
The class given is biochemical, Escherichia coli. To be noted: 20 mM HEPES pH 7.5, 100 mM NaCl, 37 °C, zinc enzyme.

Substrate in data set [4]: Nc1nc2nc[nH]c2c(=O)[nH]1
Type of data set: biochemical, Escherichia coli. To be noted: 20 mM HEPES pH 7.5, 100 mM NaCl, 37 °C.

Substrate in data set [5]: Nc1nc2nn[nH]c2c(=O)[nH]1
The class given is biochemical, Escherichia coli. Conditions: 20 mM HEPES pH 7.5, 100 mM NaCl, 37 °C, zinc enzyme.

B1: Gud1 (Saccharomyces cerevisiae S288C) (protein)
chain: MTKSDLLFDKFNDKHGKFLVFFGTFVDTPKLGELRIREKTSVGVLNGIIRFVNRNSLDPVKDCLDHDSSLSPEDVTVVDIIGKDKTRNNSFYFPGFVDTHNHVSQYPNVGVFGNSTLLDWLEKYTFPIEAALANENIAREVYNKVISKTLSHGTTTVAYYNTIDLKSTKLLAQLSSLLGQRVLVGKVCMDTNGPEYYIEDTKTSFESTVKVVKYIRETICDPLVNPIVTPRFAPSCSRELMQQLSKLVKDENIHVQTHLSENKEEIQWVQDLFPECESYTDVYDKYGLLTEKTVLAHCIHLTDAEARVIKQRRCGISHCPISNSSLTSGECRVRWLLDQGIKVGLGTDVSAGHSCSILTTGRQAFAVSRHLAMRETDHAKLSVSECLFLATMGGAQVLRMDETLGTFDVGKQFDAQMIDTNAPGSNVDMFHWQLKEKDQMQEQEQEQGQDPYKNPPLLTNEDIIAKWFFNGDDRNTTKVWVAGQQVYQI
A word on the Km: it is the substrate concentration at which the rate is half of its maximum. With B1, the Michaelis-Menten constant (Km) in “purified protein [1]” stood at 61 ± 8 µM.

B2: EcGuaD (Escherichia coli K-12) (protein)
chain: MMSGEHTLKAVRGSFIDVTRTIDNPEEIASALRFIEDGLLLIKQGKVEWFGEWENGKHQIPDTIRVRDYRGKLIVPGFVDTHIHYPQSEMVGAYGEQLLEWLNKHTFPTERRYEDLEYAREMSAFFIKQLLRNGTTTALVFGTVHPQSVDALFEAASHINMRMIAGKVMMDRNAPDYLLDTAESSYHQSKELIERWHKNGRLLYAITPRFAPTSSPEQMAMAQRLKEEYPDTWVHTHLCENKDEIAWVKSLYPDHDGYLDVYHQYGLTGKNCVFAHCVHLEEKEWDRLSETKSSIAFCPTSNLYLGSGLFNLKKAWQKKVKVGMGTDIGAGTTFNMLQTLNEAYKVLQLQGYRLSAYEAFYLATLGGAKSLGLDDLIGNFLPGKEADFVVMEPTATPLQQLRYDNSVSLVDKLFVMMTLGDDRSIYRTYVDGRLVYERN
For the protein B2, the Km came out at 930 ± 260 µM in the data set “purified protein [2]”, 1200 ± 200 µM in “purified protein [3]”, 210 ± 40 µM in “purified protein [4]” (zinc enzyme) and 1000 ± 300 µM in “purified protein [5]”.

B3: EcGuaD (Escherichia coli K-12; W101H) (protein)
chain: MMSGEHTLKAVRGSFIDVTRTIDNPEEIASALRFIEDGLLLIKQGKVEWFGEWENGKHQIPDTIRVRDYRGKLIVPGFVDTHIHYPQSEMVGAYGEQLLEHLNKHTFPTERRYEDLEYAREMSAFFIKQLLRNGTTTALVFGTVHPQSVDALFEAASHINMRMIAGKVMMDRNAPDYLLDTAESSYHQSKELIERWHKNGRLLYAITPRFAPTSSPEQMAMAQRLKEEYPDTWVHTHLCENKDEIAWVKSLYPDHDGYLDVYHQYGLTGKNCVFAHCVHLEEKEWDRLSETKSSIAFCPTSNLYLGSGLFNLKKAWQKKVKVGMGTDIGAGTTFNMLQTLNEAYKVLQLQGYRLSAYEAFYLATLGGAKSLGLDDLIGNFLPGKEADFVVMEPTATPLQQLRYDNSVSLVDKLFVMMTLGDDRSIYRTYVDGRLVYERN
For B3, the Km in “purified protein [4]” was 80 ± 10 µM.

B4: EcGuaD (Escherichia coli K-12; A386S) (protein)
chain: MMSGEHTLKAVRGSFIDVTRTIDNPEEIASALRFIEDGLLLIKQGKVEWFGEWENGKHQIPDTIRVRDYRGKLIVPGFVDTHIHYPQSEMVGAYGEQLLEWLNKHTFPTERRYEDLEYAREMSAFFIKQLLRNGTTTALVFGTVHPQSVDALFEAASHINMRMIAGKVMMDRNAPDYLLDTAESSYHQSKELIERWHKNGRLLYAITPRFAPTSSPEQMAMAQRLKEEYPDTWVHTHLCENKDEIAWVKSLYPDHDGYLDVYHQYGLTGKNCVFAHCVHLEEKEWDRLSETKSSIAFCPTSNLYLGSGLFNLKKAWQKKVKVGMGTDIGAGTTFNMLQTLNEAYKVLQLQGYRLSAYEAFYLATLGGAKSLGLDDLIGNFLPGKESDFVVMEPTATPLQQLRYDNSVSLVDKLFVMMTLGDDRSIYRTYVDGRLVYERN
On to B4, for which, in the data set “purified protein [4]”, the Michaelis constant (Km) is 140 ± 30 µM.

B5: EcGuaD (Escherichia coli K-12; F210A) (protein)
chain: MMSGEHTLKAVRGSFIDVTRTIDNPEEIASALRFIEDGLLLIKQGKVEWFGEWENGKHQIPDTIRVRDYRGKLIVPGFVDTHIHYPQSEMVGAYGEQLLEWLNKHTFPTERRYEDLEYAREMSAFFIKQLLRNGTTTALVFGTVHPQSVDALFEAASHINMRMIAGKVMMDRNAPDYLLDTAESSYHQSKELIERWHKNGRLLYAITPRAAPTSSPEQMAMAQRLKEEYPDTWVHTHLCENKDEIAWVKSLYPDHDGYLDVYHQYGLTGKNCVFAHCVHLEEKEWDRLSETKSSIAFCPTSNLYLGSGLFNLKKAWQKKVKVGMGTDIGAGTTFNMLQTLNEAYKVLQLQGYRLSAYEAFYLATLGGAKSLGLDDLIGNFLPGKEADFVVMEPTATPLQQLRYDNSVSLVDKLFVMMTLGDDRSIYRTYVDGRLVYERN
As to B5, the Michaelis constant (Km) in “purified protein [4]” stood at 210 ± 60 µM.
